From patent US20150160214A1, “Quantitation of Cellular Adhesion Dynamics Across Immobilized Receptors Under Rheological Shear Flow” (Mayo Foundation for Medical Education and Research, priority 2013, published 2015) come the findings set out here.

For this assay, the target named is T1, platelet GPIbα (Homo sapiens, UniProt P07359).
T1 construct: endogenous in cells; host or cells: platelets in citrated whole blood of normal healthy volunteer donors
Briefly: Platelet pause times on surface-captured A1 domain variants, parallel plate flow chamber (Table 4, Example 3). The assay is classed as cell-based. The note with it: shear rate 1500 s^−1; mean ± std. dev., number of measurements in parentheses; NB = No Binding. As to the method:
The determination and analysis of platelet pause times and instantaneous translocation velocities over surface captured A1 and RCAM A1 was performed as previously described (Tischer:2013). Here, the inventor used the Cellix Mims Evo syringe pump controlled by VenaFluxAssay (www.cellixltd.com). Vena8™ CGS biochips were custom designed with 800 μm width by 80 μm height microchannels bonded to glass slides with a Cu^2+ chelated PEG surface serviced by Microsurfaces Inc. (www.proteinslides.com/histag.html) to which the A1 and RCAM A1 in TBS were captured by the 6×His-Tag at a total concentration of 5 μM. Citrated whole blood was obtained from the informed consent of healthy volunteer donors with approval from the Mayo Clinic Institutional Review Board and 100 μL was perfused over the surface captured A1 domains at 700 s^−1. The shear was increased or decreased in a stepwise manner to measure the dynamics of platelet adhesion at high and low shear. After allowing the flow chamber to equilibrate for 50 s at each shear rate, 1 min movies were recorded at 24 frames per second in phase contrast at 200× magnification with 2×2 pixel binning on a Zeiss AxioCam Mrm camera (6.45 μm/px) attached to a Zeiss Axio Observer.D1 inverted microscope. Tracking analysis was performed using MediaCybernetics ImagePro® Premier (www.mediacy.com/index.aspx?page=IP\_Premier) The distance travelled in the direction of flow was calculated from the coordinate data for each platelet as a function of time using √{square root over ((xt−x0)^2)}, where x0 is the coordinates of a platelet on the first frame of the movie and xt is the coordinate on subsequent frames of the movie. These trajectories were differentiated into instantaneous velocities using a Savitzky-Golay algorithm (Savitzky:1964) with a five data point window size and a second order polynomial implemented into a Mathematica (www.wolfram.com/mathematica) notebook written in our lab. Trajectories were retained for statistical analysis if the platelet was present for ≧1 s and travelled a total distance greater than 1 Distance travelled in pixels (px) was converted to (μm) using 6.45 μm/px*2/200=0.0645 μm/px. Pause times were determined by the amount of time (sec) a platelets velocity was 0±4 px/s≅0±0.23 μm/s, within the noise. Data are reported as mean velocities and pause times attained by individual platelets averaged over all platelets analyzed. Integral analysis of the cumulative pause time histogram gives the survival fraction, equation (24).
The rheological interaction of platelets with A1 domain variants harboring type 2M and type 2B mutations was studied using recently developed flow-chamber methods (19). The A1 domains ([…]) were immobilized on Vena8™ biochips (Cellix, Dublin, Ireland) coated with a Cu^2+-chelated poly-ethylene-glycol surface serviced by MicroSurfaces, Inc. (Englewood, N.J.) via the 6×His-Tag, enabling the preservation of the structural properties of the domain in solution and its concomitant effects on platelet adhesion under rheological shear flow. One-hundred microliters of citrated whole blood, obtained from the informed consent of normal healthy volunteer donors with approval from the Mayo Clinic Institutional Review Board (Rochester, Minn.), was perfused at a shear rate of 800 s^−1 followed by Tris-buffered saline. Platelets translocating on the surface-captured domains were filmed at 24 frames/s for 1 min at logarithmic intervals of the shear rate. Coordinates obtained from tracking analysis of the resulting movies were processed using the inventor recently developed statistical analytics for the quantification of cellular adhesion dynamics across immobilized receptors under rheological shear flow (supra). Biochips lacking the surface-captured A1 domain were completely inert to platelets.

Consider “A1-1238: Recombinant human vWF A1 domain, amino acids Q1238-P1471, with N-terminal 6×His-Tag, disulfide intact”, for which the “Pause Time 1500 s^−1 (s)” value is reported as 0.67 ± 0.07 (6) s.
